Experimental findings from publication PMC2270323, “Phosphorylation-Independent Regulation of the Diguanylate Cyclase WspR” (PLoS Biology, 2008) are described below.

In data set [1] the target is WspR from P. syringae DC3000 (full length) (P. syringae DC3000). Put plainly: crystal structure; unpublished data: crystal structure of the WspR homolog from P. syringae.
Data set [2] concerns the molecule itself. Put plainly: crystal structure; c-di-GMP-bound full-length WspR, 2.4 Å, space group C2, two molecules in the asymmetric unit; hanging drop, 0.1 M Tris-Cl pH 8.0, 2.9 M NaCl, 15% xylitol, 20 °C.
Data set [3] deals with the molecule itself. Put plainly: SEC; c-di-GMP-bound protein as purified, 0.24 mM; Superdex 200 10/300; 25 mM Tris-Cl pH 7.5, 100 mM NaCl, 1 mM DTT.
Data set [4] concerns the molecule itself. Put plainly: SEC; nucleotide-free protein (wild type: PDE-treated, PDE and nucleotide removed; GGAAF as purified), 0.08-0.24 mM; Superdex 200 10/300; 25 mM Tris-Cl pH 7.5, 100 mM NaCl, 1 mM DTT; distribution depends on protein concentration. On the technique in general: Size exclusion chromatography separates by hydrodynamic size, large species first.
Data set [5] concerns the molecule itself. Put plainly: SEC-MALS; stalk mutants as purified (c-di-GMP bound), approximately 0.1 mM; Shodex KW-803; 25 mM Tris-Cl pH 7.5, 100 mM NaCl, 1 mM DTT.
Data set [6] deals with the molecule itself. Put plainly: SEC-MALS; nucleotide-free mutants as purified, 4 mg/ml (approximately 0.1 mM); Shodex KW-803; 25 mM Tris-HCl pH 7.5, 100 mM NaCl, 1 mM DTT.
Data set [7] deals with the molecule itself. Put plainly: SEC; unpublished data: lysates of E. coli expressing WspR^R242A or WspR^GGAAF, gel filtration.

Where a chain is given by its changes, count along the chain named. In names and notes the source's numbering stands. Several values for one entry are separate records, joined by “and”; a condition that tells them apart may be missing. Identical values can stand only once.

What is called stoichiometry N is a count of units in the complex or per binding partner.

In turn, “WspR from P. syringae DC3000 (full length) (enzyme)” gave a stoichiometry N in data set [1] of 4.

B1: WspR from P. aeruginosa, wild type (full length) (enzyme)
chain: MHNPHESKTDLGAPLDGAVMVLLVDDQAMIGEAVRRSLASEAGIDFHFCSDPQQAVAVANQIKPTVILQDLVMPGVDGLTLLAAYRGNPATRDIPIIVLSTKEEPTVKSAAFAAGANDYLVKLPDAIELVARIRYHSRSYIALQQRDEAYRALRESQQQLLETNLVLQRLMNSDGLTGLSNRRHFDEYLEMEWRRSLREQSQLSLLMIDVDYFKSYNDTFGHVAGDEALRQVAGAIREGCSRSSDLAARYGGEEFAMVLPGTSPGGARLLAEKVRRTVESLQISHDQPRPGSHLTVSIGVSTLVPGGGGQTFRVLIEMADQALYQAKNNGRNQVGLMEQPVPPAPAG
notes: the nucleotide-free form was made by treatment with the PDE SadR/RocR and repurification; The nucleotide state is told in each assay's format; also called WspR^wt; PA3702; source: E. coli BL21(DE3), purified (NiNTA, SEC); also E. coli BL21, in lysate; not shown: His6, C-terminal, kept
B1: the “stoichiometry N” value in data set [2] was found to be 4; in data set [3] it was 2.

B2: WspR^GGAAF (catalytically dead mutant of P. aeruginosa WspR) (enzyme)
chain: B1 chain with E253A, E254A
notes: WspR, P. aeruginosa PAO1, locus tag PA3702; the two central glutamates of the GGEEF motif (residues 251-255) replaced by alanines; Purifies nucleotide-free; source: E. coli BL21(DE3), purified (NiNTA, SEC); also E. coli BL21, in lysate; not shown: His6, C-terminal, kept
In the case of B2, the “stoichiometry N” value in data set [4] was 4 and 2.

B3: WspR^L170D (stalk mutant of P. aeruginosa WspR) (enzyme)
chain: B1 chain with L170D
notes: WspR, P. aeruginosa PAO1, locus tag PA3702, with L170D; source: E. coli, purified
For B3, the “stoichiometry N” value in data set [5] is 2 and 4.

B4: WspR^R198A (I-site mutant of P. aeruginosa WspR) (enzyme)
chain: B1 chain with R198A
notes: WspR, P. aeruginosa PAO1, locus tag PA3702, with R198A; Purifies essentially nucleotide-free; source: E. coli BL21(DE3), purified (NiNTA, SEC)
For B4, the “stoichiometry N” value in data set [6] is 2 and 4.

B5: WspR^R242A (I-site mutant of P. aeruginosa WspR) (enzyme)
chain: B1 chain with R242A
notes: WspR, P. aeruginosa PAO1, locus tag PA3702, with R242A; Purifies essentially nucleotide-free; source: E. coli BL21(DE3), purified (NiNTA, SEC); also E. coli BL21, in lysate; not shown: His6, C-terminal, kept
As to B5, the entries for the “stoichiometry N” value in data set [6] and in data set [7] were 4 and 2, respectively.
